Results published in patent US20200331991A1.

How the values were obtained:
[1] = target: human α-CGRP K35A (19-37) (human); test: Biacore 25 C, Fab over peptide on SA chip; KD ratio to parent 19-37
[2] = target: human α-CGRP N31A (25-37) (human); test: Biacore 25 C, Fab over peptide on SA chip; KD ratio to parent 25-37
[3] = target: human α-CGRP T30A (25-37) (human); test: as above
[4] = target: human α-CGRP V32A (25-37) (human); test: as above
[5] = target: human α-CGRP G33A (25-37) (human); test: as above
[6] = target: human α-CGRP F27A (25-37) (human); test: as above
[7] = target: human α-CGRP P29A (25-37) (human); test: as above
[8] = target: human α-CGRP S34A (25-37) (human); test: as above
[9] = target: human α-CGRP V28A (25-37) (human); test: as above

KD (mutant/parent) [1]: 0.3 | KD (mutant/parent) [2]: 0.3 | KD (mutant/parent) [3]: 0.2 | KD (mutant/parent) [4]: 0.9 | KD (mutant/parent) [5]: 1.3 | KD (mutant/parent) [6]: 0.8 | KD (mutant/parent) [7]: 0.2 | KD (mutant/parent) [8]: 0.8 | KD (mutant/parent) [9]: 0.8
Substance: anti-CGRP antibody 4901, Fab fragment
